Source: PMC6317713

Key:
Experiment in all cases: two-hybrid
[1] = target: DIG10.3 monomer (DIG0), computationally designed digoxigenin-binding protein
[2] = target: PRO0 (DIG10.3 Y34F, Y99F, Y101F), progesterone ligand-binding domain
[3] = target: DIG2b (DIG10.3 I102A), knob-in-hole design
[4] = target: DIG1b (DIG10.3 E83R), charge swap design

DIG1 (DIG10.3 E83V) (designed binder)
fold activation of the luciferase reporter with digoxigenin [1]: 400 fold
fold luciferase activity with both ligands over either ligand alone [2]: 20 fold

DIG2a (DIG10.3 I102M, V104F), knob-in-hole design (designed binder)
fold increase in reporter activation with digoxigenin [3]: > 500 fold

DIG1a (DIG10.3 R116E), charge swap design (designed binder)
fold increase in reporter activation with digoxigenin [4]: > 500 fold

DIG10.3 monomer (DIG0), computationally designed digoxigenin-binding protein (designed binder)
fold increase in luciferase activity with 50 uM digoxigenin [1]: 20 fold

PRO0 (DIG10.3 Y34F, Y99F, Y101F), progesterone ligand-binding domain (designed binder)
fold increase in reporter activity with 1 uM progesterone [2]: 200 fold
